# Source: paper PMC9900621, “5-Formyltetrahydrofolate promotes conformational remodeling in a methylenetetrahydrofolate reductase active site and inhibits its activity” (The Journal of Biological Chemistry, 2022)
# T1: methylenetetrahydrofolate reductase (tMTHFR) (Thermus thermophilus, UniProt Q5SLG6, E18Q)
# T1 construct: gene TTHA0327; recombinant, uncleavable C-terminal hexa-Histidine tag
# T1 sequence (Q5SLG6 1-296 E18Q): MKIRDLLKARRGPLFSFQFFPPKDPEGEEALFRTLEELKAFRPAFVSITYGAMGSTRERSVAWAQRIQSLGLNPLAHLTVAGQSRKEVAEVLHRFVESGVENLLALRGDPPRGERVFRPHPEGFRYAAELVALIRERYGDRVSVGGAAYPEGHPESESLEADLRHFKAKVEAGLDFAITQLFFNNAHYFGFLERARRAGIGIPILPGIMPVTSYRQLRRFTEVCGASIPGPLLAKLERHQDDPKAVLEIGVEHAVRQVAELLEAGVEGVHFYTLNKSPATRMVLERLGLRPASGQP
# Key:
# [1] = molecular target: T1, methylenetetrahydrofolate reductase (tMTHFR); experiment: crystal structure ([…] Å, pH […]); format: binding
# [2] = molecular target: the molecule itself; experiment: crystal structure; tMTHFR cocrystallised with CHO-H4folate, FAD-replete; reservoir 0.1 M sodium acetate pH 4.5, 2.5 M NaCl, 0.2 M lithium sulfate, 1.2% myo-inositol, 4 °C; 1.45 Å
# [3] = molecular target: the molecule itself; experiment: crystal structure; folate-free tMTHFR Glu18Gln, as purified, with 0.6 mM CH3-H4folate; reservoir 0.1 M Hepes pH 7.8, 1 M LiCl, 20% PEG 6000, 20 °C, hanging drop; 1.90 Å
molecule,measurement,setting,value
Cc1cc2nc3c(=O)[nH]c(=O)nc-3n(C[C@H](O)[C@H](O)[C@H](O)COP(=O)(O)OP(=O)(O)OC[C@H]3O[C@@H](n4cnc5c(N)ncnc54)[C@H](O)[C@@H]3O)c2cc1C [FAD],"crystal structure (1.90 Å, pH 7.8)",[1],presence of a small-molecule was found in the active site near FAD
"Thermus thermophilus HB8 methylenetetrahydrofolate reductase (tMTHFR), wild type (enzyme, Uncleavable hexa-histidine tag on the C-terminus; Crystallised FAD-replete, with or without CHO-H4folate; also called tMTHFR^wt; MTHFR^wt; not shown: His6, C-terminal, kept) MKIRDLLKARRGPLFSFEFFPPKDPEGEEALFRTLEELKAFRPAFVSITYGAMGSTRERSVAWAQRIQSLGLNPLAHLTVAGQSRKEVAEVLHRFVESGVENLLALRGDPPRGERVFRPHPEGFRYAAELVALIRERYGDRVSVGGAAYPEGHPESESLEADLRHFKAKVEAGLDFAITQLFFNNAHYFGFLERARRAGIGIPILPGIMPVTSYRQLRRFTEVCGASIPGPLLAKLERHQDDPKAVLEIGVEHAVRQVAELLEAGVEGVHFYTLNKSPATRMVLERLGLRPASGQP",binding result,[2],binds
"Thermus thermophilus HB8 methylenetetrahydrofolate reductase Glu18Gln mutant (enzyme, methylenetetrahydrofolate reductase of Thermus thermophilus HB8 with Glu18Gln, expressed from pET(tMR^Glu18Gln-H); Uncleavable hexa-histidine tag on the C-terminus; Crystallised as purified, with 0.6 mM CH3-H4folate that could not be assigned in the density; also called tMTHFR^Glu18Gln; MTHFR^Glu18Gln; not shown: His6, C-terminal, kept) MKIRDLLKARRGPLFSFQFFPPKDPEGEEALFRTLEELKAFRPAFVSITYGAMGSTRERSVAWAQRIQSLGLNPLAHLTVAGQSRKEVAEVLHRFVESGVENLLALRGDPPRGERVFRPHPEGFRYAAELVALIRERYGDRVSVGGAAYPEGHPESESLEADLRHFKAKVEAGLDFAITQLFFNNAHYFGFLERARRAGIGIPILPGIMPVTSYRQLRRFTEVCGASIPGPLLAKLERHQDDPKAVLEIGVEHAVRQVAELLEAGVEGVHFYTLNKSPATRMVLERLGLRPASGQP",binding result,[3],binds
